In patent US20220112276A1 (Janssen / Centocor, published 2022):

T1: mouse pIgR extracellular domain (ECD) (mouse, UniProt O70570 19-645)
T1 construct: Bought from R&D Systems (Cat 2800-PG-050); also called mpIgR ECD
T1 sequence: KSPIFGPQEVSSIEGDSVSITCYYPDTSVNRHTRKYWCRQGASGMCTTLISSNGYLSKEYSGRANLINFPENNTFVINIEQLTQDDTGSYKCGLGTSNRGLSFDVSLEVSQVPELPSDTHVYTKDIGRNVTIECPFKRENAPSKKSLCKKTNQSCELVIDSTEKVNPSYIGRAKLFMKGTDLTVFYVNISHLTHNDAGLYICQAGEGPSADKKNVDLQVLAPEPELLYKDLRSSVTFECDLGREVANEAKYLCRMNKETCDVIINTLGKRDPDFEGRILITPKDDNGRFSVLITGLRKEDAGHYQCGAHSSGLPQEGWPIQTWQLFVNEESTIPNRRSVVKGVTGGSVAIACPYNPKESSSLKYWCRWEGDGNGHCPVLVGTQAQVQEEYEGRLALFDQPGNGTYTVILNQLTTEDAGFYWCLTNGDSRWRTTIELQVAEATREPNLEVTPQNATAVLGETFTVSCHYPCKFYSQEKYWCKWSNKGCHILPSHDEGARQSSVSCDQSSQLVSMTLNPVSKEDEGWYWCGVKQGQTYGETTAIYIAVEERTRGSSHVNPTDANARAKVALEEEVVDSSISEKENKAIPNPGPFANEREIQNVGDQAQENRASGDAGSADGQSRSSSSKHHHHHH

T2: rat pIgR extracellular domain (rat, UniProt P15083 19-643)
T2 construct: extracellular domain
T2 sequence (looked up): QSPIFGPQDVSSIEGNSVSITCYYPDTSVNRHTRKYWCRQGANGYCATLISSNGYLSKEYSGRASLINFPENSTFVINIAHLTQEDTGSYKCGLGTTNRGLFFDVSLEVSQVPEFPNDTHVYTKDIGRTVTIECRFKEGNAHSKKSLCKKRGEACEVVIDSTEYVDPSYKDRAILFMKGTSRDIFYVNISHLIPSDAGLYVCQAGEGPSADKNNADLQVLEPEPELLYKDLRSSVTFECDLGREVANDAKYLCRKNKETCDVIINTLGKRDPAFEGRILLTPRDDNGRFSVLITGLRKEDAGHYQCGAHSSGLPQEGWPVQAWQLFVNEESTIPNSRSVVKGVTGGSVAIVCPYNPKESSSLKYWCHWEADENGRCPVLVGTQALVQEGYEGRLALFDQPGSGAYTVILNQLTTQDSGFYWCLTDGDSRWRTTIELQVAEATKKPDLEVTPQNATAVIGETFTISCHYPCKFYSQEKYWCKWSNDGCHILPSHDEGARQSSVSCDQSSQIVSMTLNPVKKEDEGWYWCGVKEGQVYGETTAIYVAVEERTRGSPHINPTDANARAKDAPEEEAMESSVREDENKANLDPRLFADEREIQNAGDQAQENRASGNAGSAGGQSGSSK


Tests used:
Assay in all cases: SPR, VHH captured by anti-Fc, ECD analyte
[1] = molecular target: T3, human pIgR extracellular domain (ECD) (human, UniProt P01833 19-638)
T3 construct: Bought from R&D Systems (Cat 2717-PG-050); also called hpIgR ECD
T3 sequence (P01833 other isoform, or with tags, fused parts or gaps): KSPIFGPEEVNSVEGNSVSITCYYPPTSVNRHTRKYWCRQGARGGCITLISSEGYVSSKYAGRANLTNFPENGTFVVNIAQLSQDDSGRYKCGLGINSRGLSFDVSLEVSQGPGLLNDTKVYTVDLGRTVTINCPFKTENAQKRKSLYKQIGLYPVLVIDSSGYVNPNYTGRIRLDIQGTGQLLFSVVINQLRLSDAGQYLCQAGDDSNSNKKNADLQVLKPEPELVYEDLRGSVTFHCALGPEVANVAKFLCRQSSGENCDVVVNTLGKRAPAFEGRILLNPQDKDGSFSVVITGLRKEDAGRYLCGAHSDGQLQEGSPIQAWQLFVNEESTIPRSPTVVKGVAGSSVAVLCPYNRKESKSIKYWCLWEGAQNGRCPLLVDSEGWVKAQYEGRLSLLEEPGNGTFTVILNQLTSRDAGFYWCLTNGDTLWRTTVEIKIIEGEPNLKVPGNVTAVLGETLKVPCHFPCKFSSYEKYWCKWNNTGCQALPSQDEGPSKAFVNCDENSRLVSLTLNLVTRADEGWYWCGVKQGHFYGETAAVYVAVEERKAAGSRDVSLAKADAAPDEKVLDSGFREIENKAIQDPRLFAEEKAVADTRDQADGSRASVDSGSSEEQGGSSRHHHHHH
Method in brief: (§1)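 Anti-human Fc surface captured VHH at 0.5 ug/ml (~200-300 RU); running buffer HBSP with 100 ug/ml BSA, 30 μL/min. Single-cycle kinetics with ECD injected low to high from 30 nM in 3-fold dilutions, dissociation 30 min. Double-referenced data globally fit to 1:1 Langmuir model for kon, koff, KD.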

[2] = molecular target: T1, mouse pIgR extracellular domain (ECD)
Method in brief: as §1

[3] = molecular target: T4, cynomolgus monkey pIgR extracellular domain (cynomolgus monkey, UniProt A0A2K5WMU9 19-638)
T4 construct: extracellular domain
T4 sequence (A0A2K5WMU9 entry or part of it): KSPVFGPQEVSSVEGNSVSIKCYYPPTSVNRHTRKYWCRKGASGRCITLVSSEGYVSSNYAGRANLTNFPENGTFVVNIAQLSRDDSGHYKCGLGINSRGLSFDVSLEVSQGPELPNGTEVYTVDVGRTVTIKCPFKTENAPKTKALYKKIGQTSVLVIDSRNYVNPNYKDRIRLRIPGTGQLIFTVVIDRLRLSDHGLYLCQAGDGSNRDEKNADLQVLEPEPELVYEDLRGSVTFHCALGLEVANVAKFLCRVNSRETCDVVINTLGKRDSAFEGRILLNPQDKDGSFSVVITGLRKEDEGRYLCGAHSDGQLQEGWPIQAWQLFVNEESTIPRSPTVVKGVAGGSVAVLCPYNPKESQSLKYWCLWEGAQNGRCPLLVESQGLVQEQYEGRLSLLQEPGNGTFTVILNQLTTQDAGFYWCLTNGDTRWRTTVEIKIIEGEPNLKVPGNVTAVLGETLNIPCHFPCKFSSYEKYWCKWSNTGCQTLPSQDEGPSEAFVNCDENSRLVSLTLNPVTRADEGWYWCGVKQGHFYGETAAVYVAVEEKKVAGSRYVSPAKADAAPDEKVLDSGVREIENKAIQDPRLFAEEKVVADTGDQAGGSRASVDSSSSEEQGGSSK
Method in brief: as §1

[4] = molecular target: T2, rat pIgR extracellular domain
Method in brief: as §1

| Binder | Kd [1] [nM] | Kd [2] [nM] | Kd [3] [nM] | Kd [4] [nM] |
| --- | --- | --- | --- | --- |
| 01F09R3 VHH Mono-Fc (Fc fusion) QVQLVESGGGLAQAGGSLTLSCAASGTAAGIDVMGWYRQTPGNSREFVARIFSNDVTHYADSVTGRFTLSRTQDKNTVSLQMNSLKPDDTGVYYCNARIWTGSTTVDYWGQGTQVTVSSSPAPELLGGPSVFLFPPKPKDTLMISRTPEVTCVVVDVSHEDPEVKFNWYVDGVEVHNAKTKPREEQYNSTYRVVSVLTVLHQDWLNGKEYKCKVSNKALPAPIEKTISKAKGQPREPQVYTKPPSREEMTKNQVSLSCLVKGFYPSDIAVEWESNGQPENNYKTTVPVLDSDGSFRLASYLTVDKSRWQQGNVFSCSVMHEALHNHYTQKSLSLSPGK | 0.397 | 985 | 566 | 70.8 |
| 01A01R3 VHH Mono-Fc (Fc fusion) EVQLVESGGGLVQAGGSLRLSCAASGSGRTFTSYTMGWFRQAPGKEREFVSALTWADDSTYYKYYADSMKGRLTISRDNAKNTVYLQMNSLKPEDTAVYYCVATGRGLTYDPRDRRKYDYWGQGTQVTVSSSPAPELLGGPSVFLFPPKPKDTLMISRTPEVTCVVVDVSHEDPEVKFNWYVDGVEVHNAKTKPREEQYNSTYRVVSVLTVLHQDWLNGKEYKCKVSNKALPAPIEKTISKAKGQPREPQVYTKPPSREEMTKNQVSLSCLVKGFYPSDIAVEWESNGQPENNYKTTVPVLDSDGSFRLASYLTVDKSRWQQGNVFSCSVMHEALHNHYTQKSLSLSPGK | 1.31 | 14 | 4.93 | 1.34 |
| 01H10R2 VHH Mono-Fc (Fc fusion) QVQLVESGGGLVQPGGSLRLSCAASGRTSSISTMGWFRQAPGKEREFVTAIRWSGSSSYKYYADSVKGRFTISRDNARNTVYLQMNSLKPEDTAVYYCAAQMSLWRDPREIDYDYWGQGTLVTVSSSPAPELLGGPSVFLFPPKPKDTLMISRTPEVTCVVVDVSHEDPEVKFNWYVDGVEVHNAKTKPREEQYNSTYRVVSVLTVLHQDWLNGKEYKCKVSNKALPAPIEKTISKAKGQPREPQVYTKPPSREEMTKNQVSLSCLVKGFYPSDIAVEWESNGQPENNYKTTVPVLDSDGSFRLASYLTVDKSRWQQGNVFSCSVMHEALHNHYTQKSLSLSPGK | 5.95 | 3.45 | 2.92 | 2.4 |
| 01B02R2L VHH Mono-Fc (Fc fusion) EVQLVESGGGLVQAGGSLKLACAASGLTFSSYRMGWFRQAPGKEREFVAAIDWNGRGTYYRYYADSVKGRFTISRDNAKNTMCLQMNSLKPEDTAVYYSAIDSRTSIDPRTSGHYRYWGQGTLVTVSSSPAPELLGGPSVFLFPPKPKDTLMISRTPEVTCVVVDVSHEDPEVKFNWYVDGVEVHNAKTKPREEQYNSTYRVVSVLTVLHQDWLNGKEYKCKVSNKALPAPIEKTISKAKGQPREPQVYTKPPSREEMTKNQVSLSCLVKGFYPSDIAVEWESNGQPENNYKTTVPVLDSDGSFRLASYLTVDKSRWQQGNVFSCSVMHEALHNHYTQKSLSLSPGK | 20.2 | 4.47 | 14.2 | 13.4 |
| 01F12R2 VHH Mono-Fc (Fc fusion) EVQLVESGGGLVQPGGSLRLSCAASGRTFSSYTMGWFRQAPGEEREFVSAISWSSDGTYYKYYTDTVKGRFTISRDNAETTVHLQMNSLKPEDTAVYYCAASSSGTYGDPRSEREYRYWGQGTLVTVSSSPAPELLGGPSVFLFPPKPKDTLMISRTPEVTCVVVDVSHEDPEVKFNWYVDGVEVHNAKTKPREEQYNSTYRVVSVLTVLHQDWLNGKEYKCKVSNKALPAPIEKTISKAKGQPREPQVYTKPPSREEMTKNQVSLSCLVKGFYPSDIAVEWESNGQPENNYKTTVPVLDSDGSFRLASYLTVDKSRWQQGNVFSCSVMHEALHNHYTQKSLSLSPGK | 12.5 | 264 | 3.17 | 4.2 |
| 01A07R3 VHH Mono-Fc (Fc fusion) EVQLVESGGGLVQTGESLRLSCAASGRAFSDLRMAWFRQVPGKEREFVAAVEWRGSSRYYYSADSVKGRFTISRTSPKGETYLQMNGLKPEDTAVYYCAAVSPVVGDPRNSDTYNYWGQGTQVTVSSSPAPELLGGPSVFLFPPKPKDTLMISRTPEVTCVVVDVSHEDPEVKFNWYVDGVEVHNAKTKPREEQYNSTYRVVSVLTVLHQDWLNGKEYKCKVSNKALPAPIEKTISKAKGQPREPQVYTKPPSREEMTKNQVSLSCLVKGFYPSDIAVEWESNGQPENNYKTTVPVLDSDGSFRLASYLTVDKSRWQQGNVFSCSVMHEALHNHYTQKSLSLSPGK | 0.2 | 1.41 | 10.7 | 1.24 |
| 01H10R3 VHH Mono-Fc (Fc fusion) QVQLVESGGGLVQAGGSLRLSCAASGRAFSQYTMGWFRQAPGKEREFVTAIRWSGGSIYKYYADSVKGRFTISGDNARNTVDLQMNSLKPEDTAVYYCAARMSPWGDPRGNEYDYWGQGTLVTVSSSPAPELLGGPSVFLFPPKPKDTLMISRTPEVTCVVVDVSHEDPEVKFNWYVDGVEVHNAKTKPREEQYNSTYRVVSVLTVLHQDWLNGKEYKCKVSNKALPAPIEKTISKAKGQPREPQVYTKPPSREEMTKNQVSLSCLVKGFYPSDIAVEWESNGQPENNYKTTVPVLDSDGSFRLASYLTVDKSRWQQGNVFSCSVMHEALHNHYTQKSLSLSPGK | 34 | 47.1 | 94.6 | 11.4 |
| 01E04R3LS VHH Mono-Fc (Fc fusion) EVQLVESGGGLVQAGDSLRLSCAASGRTFTTYVMGWFRQAPGKDREFVATITWSGSTNYKYYADPVKGRFTISRDNAKNTVYLQMNSLKPEDTAVYYCTSSTVVTDPRKLNEYAYWGQGTLVTVSSSPAPELLGGPSVFLFPPKPKDTLMISRTPEVTCVVVDVSHEDPEVKFNWYVDGVEVHNAKTKPREEQYNSTYRVVSVLTVLHQDWLNGKEYKCKVSNKALPAPIEKTISKAKGQPREPQVYTKPPSREEMTKNQVSLSCLVKGFYPSDIAVEWESNGQPENNYKTTVPVLDSDGSFRLASYLTVDKSRWQQGNVFSCSVMHEALHNHYTQKSLSLSPGK | 5.37 | 3.76 | 3.97 | 1.36 |
| 01G07R2L VHH Mono-Fc (Fc fusion) QVQLVESGGGLVQPGGSLRLSCVASGLPFSSSRMAWFAQAPGKEREFVAAIGWRGRTSYKYYADSVKGRFTVSGDNAKKTLDLQMKDLKPEDTALYFCAAHPNDDGDPRISGNYQYWGQGTQVTVSSSPAPELLGGPSVFLFPPKPKDTLMISRTPEVTCVVVDVSHEDPEVKFNWYVDGVEVHNAKTKPREEQYNSTYRVVSVLTVLHQDWLNGKEYKCKVSNKALPAPIEKTISKAKGQPREPQVYTKPPSREEMTKNQVSLSCLVKGFYPSDIAVEWESNGQPENNYKTTVPVLDSDGSFRLASYLTVDKSRWQQGNVFSCSVMHEALHNHYTQKSLSLSPGK | 3.32 | 0.948 | 4.02 | 1.44 |
| 01C03R3LS VHH Mono-Fc (Fc fusion) EVQLVESGGGLVQPGGSLRLSCVASGLPGSSSRMAWFAQAPGKEREFVAAIAWRGRTSYKYYSDSVKGRFTVSGDNAKRTLDLQMKDLNPEDTALYFCAAHPNDDGDPRISGNYQYWGQGTQVTVSSSPAPELLGGPSVFLFPPKPKDTLMISRTPEVTCVVVDVSHEDPEVKFNWYVDGVEVHNAKTKPREEQYNSTYRVVSVLTVLHQDWLNGKEYKCKVSNKALPAPIEKTISKAKGQPREPQVYTKPPSREEMTKNQVSLSCLVKGFYPSDIAVEWESNGQPENNYKTTVPVLDSDGSFRLASYLTVDKSRWQQGNVFSCSVMHEALHNHYTQKSLSLSPGK | 4.87 | 0.8 | 2.84 | 3.02 |
